This experiment deals with SARS-CoV-2 RBD (residues 319-514) with C-terminal hexahistidine tag (Severe acute respiratory syndrome …, UniProt P0DTC2). The experiment can be described thus: ELISA. (An ELISA detects its analyte on a solid surface through an enzyme-linked reagent.)

B1: SARS2-38 (murine IgG1 mAb) (antibody, V domains shown)
VH: QVQLKESGPGLVAPSQSLSITCTVSGFSLTRYGVHWVRQPPGKGLEWLGVIWADGSTYYNSALMSRLSISKDNSKSQVFLNMNSLQTDDTAKYYCARDGRGYDDYWGQGTTLTVSS
VL: QIVLTQSPAIMSASPGEKVTMTCSASSTVSFIYWYQQKPGSSPRLLIYDTSNPASGVPVRFSGSGCGTSYYLTISRMEAEDAATYYCQQWNTYPLTFGAGTKLELK
Consider B1, for which the binding result is on record as “binds”.

The values above are taken from publication doi:10.1101/2021.04.26.441501 (bioRxiv, 2021).
